# Assays:
# [1] = biological target: mtAR S210A (UniProt P10275)
# [2] = biological target: mtAR S790A (UniProt P10275)
# mtAR S790A, sequence (P10275 whole entry, looked up, stated change not applied): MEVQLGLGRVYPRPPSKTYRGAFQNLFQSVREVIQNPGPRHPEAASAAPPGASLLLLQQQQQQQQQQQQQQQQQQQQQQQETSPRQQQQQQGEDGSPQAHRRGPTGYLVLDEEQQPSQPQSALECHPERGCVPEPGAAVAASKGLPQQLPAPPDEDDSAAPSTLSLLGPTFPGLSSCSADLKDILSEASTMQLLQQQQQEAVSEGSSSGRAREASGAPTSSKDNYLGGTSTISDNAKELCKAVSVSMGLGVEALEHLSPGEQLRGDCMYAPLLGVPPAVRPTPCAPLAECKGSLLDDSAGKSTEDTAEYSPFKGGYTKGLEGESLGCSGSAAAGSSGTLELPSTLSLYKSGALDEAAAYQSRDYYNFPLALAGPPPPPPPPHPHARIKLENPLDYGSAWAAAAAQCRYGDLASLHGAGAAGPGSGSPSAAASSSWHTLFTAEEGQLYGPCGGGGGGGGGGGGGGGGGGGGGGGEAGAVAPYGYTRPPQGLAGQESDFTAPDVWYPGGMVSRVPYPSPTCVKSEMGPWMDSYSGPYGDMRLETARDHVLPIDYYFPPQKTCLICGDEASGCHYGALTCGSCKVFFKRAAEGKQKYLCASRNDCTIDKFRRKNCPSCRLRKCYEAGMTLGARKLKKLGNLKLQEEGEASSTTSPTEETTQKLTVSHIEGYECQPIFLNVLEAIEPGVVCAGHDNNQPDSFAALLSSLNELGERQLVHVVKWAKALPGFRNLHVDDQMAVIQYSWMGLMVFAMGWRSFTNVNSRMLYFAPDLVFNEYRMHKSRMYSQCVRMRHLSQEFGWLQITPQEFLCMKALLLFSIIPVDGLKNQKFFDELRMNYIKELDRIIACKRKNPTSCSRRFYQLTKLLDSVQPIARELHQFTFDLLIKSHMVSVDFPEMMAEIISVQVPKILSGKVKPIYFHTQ
# mtAR S210A, sequence (P10275 whole entry, looked up, stated change not applied): as above
substance,measurement,setting,value
"Akt/PKB (endogenous, LNCaP cells)",in vitro phosphorylation of immunoprecipitated AR by Akt,[1],"the degree of Akt phosphorylation of mtARS210A and mtARS790A, as compared to wtAR, was reduced significantly"
same,in vitro phosphorylation of immunoprecipitated AR by Akt/PKB,[1],"the degree of phosphorylation of ARS210A and ARS790A by Akt/PKB, as compared to wtAR, was reduced significantly"
same,in vitro phosphorylation of immunoprecipitated AR by Akt,[2],"the degree of Akt phosphorylation of mtARS210A and mtARS790A, as compared to wtAR, was reduced significantly"
same,in vitro phosphorylation of immunoprecipitated AR by Akt/PKB,[2],"the degree of phosphorylation of ARS210A and ARS790A by Akt/PKB, as compared to wtAR, was reduced significantly"
